Assay results reported in PMC12855180 (Nature Communications, 2025).
Like-named read-outs stand apart in the source and are kept apart here.

B1: full-length FliD, as in the fusion constructs (natural protein)
chain: MASISSLGVGSNLPLDQLLTDLTKNEKGRLTPITKQQSANSAKLTAYGTLKSALEKFQTANTALNKADLFKSTVASSTTEDLKVSTTAGAAAGTYKINVTQLAAAQSLATKTTFATTKEQLGDTSVTSRTIKIEQPGRKEPLEIKLDKGDTSMEAIRDAINDADSGIAASIVKVKENEFQLVLTANSGTDNTMKITVEGDTKLNDLLAYDSTTNTGNMQELVKAENAKLNVNGIDIERQSNTVTDAPQGITLTLTKKVTDATVTVTKDDTKAKEAIKSWVDAYNSLVDTFSSLTKYTAVEPGEEASDKNGALLGDSVVRTIQTGIRAQFANSGSNSAFKTMAEIGITQDGTSGKLKIDDDKLTKVLKDNTAAARELLVGDGKETGITTKIATEVKSYLADDGIIDNAQDNVNATLKSLTKQYLSVSNSIDETVARYKAQFTQLDTMMSKLNNTSSYLTQQFTAMNKS

Experiments:
[1] = target: FliD D1 domain (FliD^d1) (Salmonella enterica serovar Typhimurium) (UniProt P16328); experiment: NMR titration
[2] = target: the molecule itself; experiment: cryo-EM structure
[3] = target: the molecule itself; experiment: cryo-EM structure; remark: listed apart in the source
[4] = target: the molecule itself; experiment: cryo-EM structure; remark: listed apart in the source
[5] = target: the molecule itself; experiment: cross-linking
[6] = target: B1; experiment: cryo-EM structure
[7] = target: the molecule itself; experiment: cryo-EM structure; remark: listed apart in the source
[8] = target: FliD D1 domain (FliD^d1) (Salmonella enterica serovar Typhimurium) (UniProt P16328); experiment: NMR titration; remark: listed apart in the source

With “FliC, flagellin (unlabeled, for NMR titration) (from UniProt P06179 1-495) (natural protein)” the Kd [1] was 1650 µM and the stoichiometry N [1] was 1.

In the case of B1, the “stoichiometry N” value [2] is reported as 10 and the “stoichiometry N” value [3] is reported as 5.

B2: native FliD of the flagellar tip (natural protein)
chain: MASISSLGVGSNLPLDQLLTDLTKNEKGRLTPITKQQSANSAKLTAYGTLKSALEKFQTANTALNKADLFKSTVASSTTEDLKVSTTAGAAAGTYKINVTQLAAAQSLATKTTFATTKEQLGDTSVTSRTIKIEQPGRKEPLEIKLDKGDTSMEAIRDAINDADSGIAASIVKVKENEFQLVLTANSGTDNTMKITVEGDTKLNDLLAYDSTTNTGNMQELVKAENAKLNVNGIDIERQSNTVTDAPQGITLTLTKKVTDATVTVTKDDTKAKEAIKSWVDAYNSLVDTFSSLTKYTAVEPGEEASDKNGALLGDSVVRTIQTGIRAQFANSGSNSAFKTMAEIGITQDGTSGKLKIDDDKLTKVLKDNTAAARELLVGDGKETGITTKIATEVKSYLADDGIIDNAQDNVNATLKSLTKQYLSVSNSIDETVARYKAQFTQLDTMMSKLNNTSSYLTQQFTAMNKS
For B2, the “stoichiometry N” value [4] was 5.

B3: FliD^2C (A91C/A168C) (natural protein)
chain: MASISSLGVGSNLPLDQLLTDLTKNEKGRLTPITKQQSANSAKLTAYGTLKSALEKFQTANTALNKADLFKSTVASSTTEDLKVSTTAGACAGTYKINVTQLAAAQSLATKTTFATTKEQLGDTSVTSRTIKIEQPGRKEPLEIKLDKGDTSMEAIRDAINDADSGICASIVKVKENEFQLVLTANSGTDNTMKITVEGDTKLNDLLAYDSTTNTGNMQELVKAENAKLNVNGIDIERQSNTVTDAPQGITLTLTKKVTDATVTVTKDDTKAKEAIKSWVDAYNSLVDTFSSLTKYTAVEPGEEASDKNGALLGDSVVRTIQTGIRAQFANSGSNSAFKTMAEIGITQDGTSGKLKIDDDKLTKVLKDNTAAARELLVGDGKETGITTKIATEVKSYLADDGIIDNAQDNVNATLKSLTKQYLSVSNSIDETVARYKAQFTQLDTMMSKLNNTSSYLTQQFTAMNKS
In the case of B3, the “stoichiometry N” value [5] is reported as 5.

B4: FliC D1D2D3 (residues 45-455), as in the FliD-FliC fusion (domain or fragment)
chain: AAGQAIANRFTANIKGLTQASRNANDGISIAQTTEGALNEINNNLQRVRELAVQSANSTNSQSDLDSIQAEITQRLNEIDRVSGQTQFNGVKVLAQDNTLTIQVGANDGETIDIDLKQINSQTLGLDTLNVQQKYKVSDTAATVTGYADTTIALDNSTFKASATGLGGTDQKIDGDLKFDDTTGKYYAKVTVTGGTGKDGYYEVSVDKTNGEVTLAGGATSPLTGGLPATATEDVKNVQVANADLTEAKAALTAAGVTGTASVVKMSYTDNNGKTIDGGLAVKVGDDYYSATQNKDGSISINTTKYTADDGTSKTALNKLGGADGKTEVVSIGGKTYAASKAEGHNFKAQPDLAEAAATTTENPLQKIDAALAQVDTLRSDLGAVQNRFNSAITNLGNTVNNLTSARSRIE
B4 was tested, and the “stoichiometry N” value [6] was 1.

B5: FliD d0 domain truncation construct (FliD^d1d2d3, residues from 44 to 411) (domain or fragment)
chain: LTAYGTLKSALEKFQTANTALNKADLFKSTVASSTTEDLKVSTTAGAAAGTYKINVTQLAAAQSLATKTTFATTKEQLGDTSVTSRTIKIEQPGRKEPLEIKLDKGDTSMEAIRDAINDADSGIAASIVKVKENEFQLVLTANSGTDNTMKITVEGDTKLNDLLAYDSTTNTGNMQELVKAENAKLNVNGIDIERQSNTVTDAPQGITLTLTKKVTDATVTVTKDDTKAKEAIKSWVDAYNSLVDTFSSLTKYTAVEPGEEASDKNGALLGDSVVRTIQTGIRAQFANSGSNSAFKTMAEIGITQDGTSGKLKIDDDKLTKVLKDNTAAARELLVGDGKETGITTKIATEVKSYLADDGIIDNAQDNV
B5 was tested, and the “stoichiometry N” value [7] was 5.

B6: FlgL, hook-filament junction protein (unlabeled, for NMR titration) (natural protein)
chain: MRISTQMMYEQNMSGITNSQAEWMKLGEQMSTGKRVTNPSDDPIAASQAVVLSQAQAQNSQYALARTFATQKVSLEESVLSQVTTAIQTAQEKIVYAGNGTLSDDDRASLATDLQGIRDQLMNLANSTDGNGRYIFAGYKTEAAPFDQATGGYHGGEKSVTQQVDSARTMVIGHTGAQIFNSITSNAVPEPDGSDSEKNLFVMLDTAIAALKTPVEGNNVEKEKAAAAIDKTNRGLKNSLNNVLTVRAELGTQLSELSTLDSLGSDRALGQKLQMSNLVDVDWNSVISSYVMQQAALQASYKTFTDMQGMSLFQLNR
For B6, the Kd [8] was 100 µM.

B7: native FlgL of the hook-filament junction tip (natural protein)
chain: MRISTQMMYEQNMSGITNSQAEWMKLGEQMSTGKRVTNPSDDPIAASQAVVLSQAQAQNSQYALARTFATQKVSLEESVLSQVTTAIQTAQEKIVYAGNGTLSDDDRASLATDLQGIRDQLMNLANSTDGNGRYIFAGYKTEAAPFDQATGGYHGGEKSVTQQVDSARTMVIGHTGAQIFNSITSNAVPEPDGSDSEKNLFVMLDTAIAALKTPVEGNNVEKEKAAAAIDKTNRGLKNSLNNVLTVRAELGTQLSELSTLDSLGSDRALGQKLQMSNLVDVDWNSVISSYVMQQAALQASYKTFTDMQGMSLFQLNR
With B7 the “stoichiometry N” value [4] was 11.
